Data on 9 molecules can be found in patent EP4700044A1, “PROTEIN ANALOGUE AND USE THEREOF” (Shanghai Duomirui Biotechnology., Ltd., priority 2023, dated 2024).

Data set [1] concerns the target T1, FGFR1c and the cofactor β-Klotho (Homo sapiens, UniProt P11362+Q86Z14).
T1 construct: host or cells: iLite FGF21 assay ready cells (genetically engineered reporter gene cell line)
The experiment in a line: dual-luciferase reporter gene assay in iLite FGF21 assay ready cells. The format is cell-based. The source says: iLite FGF21 assay ready cells (purchased from SAVR) is a genetically engineered reporter gene cell line that responds to signals downstream to FGF21 agonism through the expression of firefly luciferase. The receptor FGFR1c and the cofactor β-Klotho were co-overexpressed on the surface of iLite FGF21 assay ready cells and have undergone genetic optimization to enhance sensitivity, such that FGF21 will cause an increase in luciferase expression in a dose-response manner. The luciferase activity detection kit was purchased from Promega (catalog number #E2980).
iLite FGF21 assay ready cells were cultured adherently in basal medium (DMEM Gluta Max, purchased from Gibco) containing 10% fetal bovine serum (FBS, purchased from Gibco) and 1% penicillin/streptomycin (purchased from Gibco). For the activity determination experiment, […] cells per well and test samples such as FGF21 mutant proteins and FGF21 conjugate molecules modified with albumin-binding agent were added to all-white 96-well culture plates (purchased from Corning), and the chemiluminescence values were detected in a microplate reader according to the instructions of the luciferase activity detection kit. Finally, the half-maximal effective concentration (EC50) values of the tested samples were obtained by means of four-parameter fitting.

Data set [2] concerns high-fat diet-induced db/db mice. The experiment in a line: pharmacodynamic test in db/db mice induced by high-fat diet (NASH model). Format: in vivo. The settings on record: subcutaneous injection once every three days, 6 weeks, liver sections, hematoxylin-eosin staining. From the text:
Establishment of a db/db mouse model induced by high-fat diet: Male db/db mice, 8 weeks old, were adaptively fed with a standard diet for 2-3 days, after which all feed was replaced with 60% high-fat feed for rearing. After 3 weeks of high-fat feed feeding, the NASH model could be obtained. Administration: N = 6, subcutaneous injection of Vehicle and protein analogues (5 or 20 nmol/kg) was given once every three days, with an administration period of 6 weeks.
At the end of the administration, liver tissue sections were taken for hematoxylin-eosin staining to detect the effect of protein analogs on the non-alcoholic fatty liver disease activity score (NAS score) in high-fat diet-induced db/db mice.

Data set [3] can be described thus: pharmacokinetic test in minipigs. The format is in vivo. Conditions: 1 mg/kg, subcutaneous injection, plasma, human FGF21 ELISA. How it is done: The pharmacokinetic properties of protein analogs can be tested in mice or minpigs.
Minipig experiment (N = 3): The injection dose was 1 mg/kg, and the injection method was subcutaneous injection. The blood-collection time points for plasma samples were 0.083, 0.25, 0.5, 1, 2, 4, 6, 8, 12, 24, 48, 72, 96, 120, 144, 168, 192, 216, 240, 264, 288 h. The blood was collected into EDTA·2K-coated test tubes (which must be temporarily stored on ice) and centrifuged at 1200 × g for 10 minutes at 4°C. Subsequently, the plasma was transferred to Micronic tubes and stored at -20°C. The human FGF21 detection ELISA kit (CAT: RD191108200R) produced by Biovendor was used to monitor the blood drug concentration.

The mark [4] stands for this setting: Example 11, four-parameter fitting.
Where [5] appears, read: Example 13, four-parameter fitting.

T1 sequence (P11362 22-822): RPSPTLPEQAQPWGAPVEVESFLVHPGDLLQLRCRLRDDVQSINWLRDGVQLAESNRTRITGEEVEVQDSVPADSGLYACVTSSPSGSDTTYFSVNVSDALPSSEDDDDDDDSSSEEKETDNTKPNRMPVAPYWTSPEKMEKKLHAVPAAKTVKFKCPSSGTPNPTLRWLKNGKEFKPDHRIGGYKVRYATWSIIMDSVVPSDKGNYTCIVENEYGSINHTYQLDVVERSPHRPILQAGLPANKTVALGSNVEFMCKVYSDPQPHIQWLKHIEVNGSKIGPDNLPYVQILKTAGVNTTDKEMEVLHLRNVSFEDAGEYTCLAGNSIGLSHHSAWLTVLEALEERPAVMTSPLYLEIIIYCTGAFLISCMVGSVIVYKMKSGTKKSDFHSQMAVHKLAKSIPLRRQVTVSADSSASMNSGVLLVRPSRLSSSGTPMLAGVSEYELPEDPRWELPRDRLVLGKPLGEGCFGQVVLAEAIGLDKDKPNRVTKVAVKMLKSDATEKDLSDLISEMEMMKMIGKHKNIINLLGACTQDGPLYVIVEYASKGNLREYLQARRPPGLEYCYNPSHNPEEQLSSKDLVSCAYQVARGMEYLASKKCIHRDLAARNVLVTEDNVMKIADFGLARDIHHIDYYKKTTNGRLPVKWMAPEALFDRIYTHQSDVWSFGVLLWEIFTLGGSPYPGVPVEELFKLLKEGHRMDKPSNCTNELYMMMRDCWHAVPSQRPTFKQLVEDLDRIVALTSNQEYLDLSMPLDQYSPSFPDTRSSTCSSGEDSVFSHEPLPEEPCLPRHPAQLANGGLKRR
T1 sequence (Q86Z14 whole entry): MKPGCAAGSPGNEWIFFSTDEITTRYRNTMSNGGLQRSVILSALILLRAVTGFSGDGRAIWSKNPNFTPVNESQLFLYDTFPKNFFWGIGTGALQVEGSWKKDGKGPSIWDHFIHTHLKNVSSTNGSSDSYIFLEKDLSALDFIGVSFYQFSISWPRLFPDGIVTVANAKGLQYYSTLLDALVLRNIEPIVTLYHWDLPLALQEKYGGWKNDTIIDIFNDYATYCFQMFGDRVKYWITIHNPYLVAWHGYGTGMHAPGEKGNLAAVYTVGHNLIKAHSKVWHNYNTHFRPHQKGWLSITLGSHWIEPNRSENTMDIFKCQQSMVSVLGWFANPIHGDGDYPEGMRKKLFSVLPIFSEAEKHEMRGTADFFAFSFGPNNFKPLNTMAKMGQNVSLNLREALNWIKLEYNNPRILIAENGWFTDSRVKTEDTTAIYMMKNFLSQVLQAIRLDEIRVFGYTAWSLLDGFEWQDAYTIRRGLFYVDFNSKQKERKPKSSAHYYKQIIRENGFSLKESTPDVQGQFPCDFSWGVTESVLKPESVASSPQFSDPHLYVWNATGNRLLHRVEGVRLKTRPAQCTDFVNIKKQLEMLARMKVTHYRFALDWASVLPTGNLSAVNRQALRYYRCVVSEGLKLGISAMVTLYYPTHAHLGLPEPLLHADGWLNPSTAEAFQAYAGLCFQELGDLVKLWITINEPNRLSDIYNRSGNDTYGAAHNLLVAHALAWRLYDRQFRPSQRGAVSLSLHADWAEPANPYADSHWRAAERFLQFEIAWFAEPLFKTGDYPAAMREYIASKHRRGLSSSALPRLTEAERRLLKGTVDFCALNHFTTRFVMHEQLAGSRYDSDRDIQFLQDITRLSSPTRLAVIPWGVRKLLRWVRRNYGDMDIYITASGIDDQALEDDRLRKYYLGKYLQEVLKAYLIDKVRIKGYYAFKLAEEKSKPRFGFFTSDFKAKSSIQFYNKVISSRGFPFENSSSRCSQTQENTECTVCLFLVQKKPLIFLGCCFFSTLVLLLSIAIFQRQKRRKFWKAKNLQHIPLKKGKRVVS

B1: Compound 10.1: PAS-FGF21 dimer: PAS15FGF21 (SEQ ID NO: 13) modified by the side chain of Example 8.3 (conjugate)
chain: SPCASPAAPAPASPAAHPIPDSSPLLQFGGQVRQRYLYTDDAQQTEAHLEIREDGTVGGAADQSPESLLQLKALKPGVIQILGVKTSRFLCQRPDGALYGSLHFDPEACSFRERLLEDGYNVYQSEAHGLPLHLPGNKSPHRDPAPRGPARFLPLPGLPPAPPEPPGILAPQPPDVGSSDPLSMVGGSQGRSPSYES
modifications: dimer; side chain of Example 8.3
On to B1, for which the EC50 in data set [1] (setting [4]) was 70 pM.

B2: Compound 12.1: Fatty acid-modified PAS-FGF21 dimer: PAS15FGF21 (SEQ ID NO: 13) modified by the side chain of Example 8.5 (conjugate)
chain: B1 chain
modifications: dimer; fatty acid side chain of Example 8.5
As to B2, the NAS score in data set [2] (5 nmol/kg) was determined as 3.83 ± 0.98; in data set [2] (20 nmol/kg) it was 3.33 ± 0.82. This molecule also displayed an EC50 in data set [1] (setting [5]) of 90 pM.

B3: Compound 12.4: Fatty acid-modified PAS-FGF21 dimer: PAS100FGF21 (SEQ ID NO: 16) modified by the side chain of Example 8.5 (conjugate)
chain: SPCASPAAPAPASPAAPAPSAPAAASAAAPAAASAAASAPSAASAAASPAAPSAPPAAASPAAPSAPPAAASPAAPAPASPAASAPSAPAAASPAAPAPASHPIPDSSPLLQFGGQVRQRYLYTDDAQQTEAHLEIREDGTVGGAADQSPESLLQLKALKPGVIQILGVKTSRFLCQRPDGALYGSLHFDPEACSFRERLLEDGYNVYQSEAHGLPLHLPGNKSPHRDPAPRGPARFLPLPGLPPAPPEPPGILAPQPPDVGSSDPLSMVGGSQGRSPSYES
modifications: dimer; fatty acid side chain of Example 8.5
Regarding B3, the EC50 in data set [1] (setting [5]) came out at 110 pM. The molecule also registered a half-life in data set [3] of 75.4 ± 9.4 h.

B4: Compound 12.6: Fatty acid-modified PAS-FGF21 dimer: PAS200FGF21 (SEQ ID NO: 17) as printed, modified by the side chain of Example 8.6 (conjugate)
chain: SPCASPAAPAPASPAAPAPSAPAAASAAAPAAASAAASAPSAASAAASPAAPSAPPAAASPAAPSAPPAAASPAAPAPASPAASAPSAPAAASPAAPAPASPAAPAPSAPAAASAAAPAAASAAASAPSASAAASAAAPAAASAAASAPSAASSAASPAAPSAPPAAASPAAPSAPPAAASPAAPAPASPAAPAPSAPAAAHPIPDSSPLLQFGGQVRQRYLYTDDAQQTEAHLEIREDGTVGGAADQSPESLLQLKALKPGVIQILGVKTSRFLCQRPDGALYGSLHFDPEACSFRERLLEDGYNVYQSEAHGLPLHLPGNKSPHRDPAPRGPARFLPLPGLPPAPPEPPGILAPQPPDVGSSDPLSMVGGSQGRSPSYES
modifications: dimer; fatty acid side chain of Example 8.6
B4: in data set [3], the half-life came to 61.3 ± 1.1 h.

B5: Compound 12.5: Fatty acid-modified PAS-FGF21 dimer: PAS200FGF21 (SEQ ID NO: 17) modified by the side chain of Example 8.5 (conjugate)
chain: B4 chain
modifications: dimer; fatty acid side chain of Example 8.5
The molecule B5 registered a 50% effective concentration (EC50) in data set [1] (setting [5]) of 90 pM.

B6: Compound 10.3: PAS-FGF21 dimer: PAS50FGF21 (SEQ ID NO: 15) modified by the side chain of Example 8.3 (conjugate)
chain: SPCASPAAPAPASPAAPAPSAPAAASAAAPAAASAAASAPSAASAAASPAAHPIPDSSPLLQFGGQVRQRYLYTDDAQQTEAHLEIREDGTVGGAADQSPESLLQLKALKPGVIQILGVKTSRFLCQRPDGALYGSLHFDPEACSFRERLLEDGYNVYQSEAHGLPLHLPGNKSPHRDPAPRGPARFLPLPGLPPAPPEPPGILAPQPPDVGSSDPLSMVGGSQGRSPSYES
modifications: dimer; side chain of Example 8.3
Molecule B6 gave a 50% effective concentration (EC50) in data set [1] (setting [4]) of 20 pM.

B7: Compound 12.3: Fatty acid-modified PAS-FGF21 dimer: PAS50FGF21 (SEQ ID NO: 15) modified by the side chain of Example 8.5 (conjugate)
chain: B6 chain
modifications: dimer; fatty acid side chain of Example 8.5
Turning to B7, the NAS score in data set [2] (5 nmol/kg) is on record as 4.33 ± 1.37; in data set [2] (20 nmol/kg) it was 3.00 ± 0.89. The molecule also registered a 50% effective concentration (EC50) in data set [1] (setting [5]) of 110 pM.

B8: Compound 12.2: Fatty acid-modified PAS-FGF21 dimer: PAS30FGF21 (SEQ ID NO: 14) modified by the side chain of Example 8.5 (conjugate)
chain: SPCASPAAPAPASPAAPAPSAPAAASAAAPAHPIPDSSPLLQFGGQVRQRYLYTDDAQQTEAHLEIREDGTVGGAADQSPESLLQLKALKPGVIQILGVKTSRFLCQRPDGALYGSLHFDPEACSFRERLLEDGYNVYQSEAHGLPLHLPGNKSPHRDPAPRGPARFLPLPGLPPAPPEPPGILAPQPPDVGSSDPLSMVGGSQGRSPSYES
modifications: dimer; fatty acid side chain of Example 8.5
In the case of B8, the NAS score turned out to be 4.33 ± 1.03 in data set [2] (5 nmol/kg) and 3.40 ± 1.14 in data set [2] (20 nmol/kg). Further, the response in data set [1] (setting [5]) was half-maximal at 130 pM (EC50). Moreover, the half-life in data set [3] came out at 65.9 ± 3.8 h.

B9: Compound 10.2: PAS-FGF21 dimer: PAS30FGF21 (SEQ ID NO: 14) modified by the side chain of Example 8.3 (conjugate)
chain: B8 chain
modifications: dimer; side chain of Example 8.3
B9 showed a half-maximal effective concentration (EC50) in data set [1] (setting [4]) of 40 pM.
